Where a chain is given by its changes, count along the chain named.

Experiment in all cases: flow cytometry on cells
Test [1] deals with T1, CD155 Mut (high-affinity mutant variant of CD155, rs1058402, G>A; Ala67Thr) (human, UniProt P15151 21-417, Ala67Thr).
T1 sequence: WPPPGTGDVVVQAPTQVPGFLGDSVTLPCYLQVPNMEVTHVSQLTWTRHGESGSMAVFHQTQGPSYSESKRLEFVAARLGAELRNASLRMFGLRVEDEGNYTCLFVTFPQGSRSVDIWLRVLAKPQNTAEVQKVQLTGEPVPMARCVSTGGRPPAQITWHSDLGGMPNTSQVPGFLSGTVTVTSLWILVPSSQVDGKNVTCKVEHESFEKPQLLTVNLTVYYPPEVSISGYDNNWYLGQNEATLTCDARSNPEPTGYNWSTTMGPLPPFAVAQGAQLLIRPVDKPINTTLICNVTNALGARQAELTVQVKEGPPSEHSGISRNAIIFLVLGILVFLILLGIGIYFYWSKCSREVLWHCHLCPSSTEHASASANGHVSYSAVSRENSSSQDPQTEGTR

The target of test [2] is T2, CD155 WT (wild-type CD155; poliovirus receptor, PVR) (human), P15151.
T2 chain: T1 sequence with T47A
The settings on record: remark: other sources report otherwise.

Test [3] addresses T1, CD155 Mut (high-affinity mutant variant …). This is another data set of the same source.

B1: Recombinant human CD226-Immunoglobulin chimeric protein (Fc fusion)
chain: EEVLWHTSVPFAENMSLECVYPSMGILTQVEWFKIGTQQDSIAIFSPTHGMVIRKPYAERVYFLNSTMASNNMTLFFRNASEDDVGYYSCSLYTYPQGTWQKVIQVVQSDSFEAAVPSNSHIVSEPGKNVTLTCQPQMTWPVQAVRWEKIQPRQIDLLTYCNLVHGRNFTSKFPRQIVSNCSHGRWSVIVIPDVTVSDSGLYRCYLQASAGENETFVMRLTVAEGKTDNQYTLFVA
modifications: Alexa Fluor 594 (Zenon human IgG labeling kit)
As to B1, the “fold binding (AUC) against the CD155 WT sBC line” value in test [1] was 1.29 fold.

B2: Recombinant human TIGIT-Immunoglobulin chimeric protein, Q495A1 22-141 (Fc fusion)
chain: MMTGTIETTGNISAEKGGSIILQCHLSSTTAQVTQVNWEQQDQLLAICNADLGWHISPSFKDRVAPGPGLGLTLQSLTVNDTGEYFCIYHTYPDGTYTGRIFLEVLESSVAEHGARFQIP
modifications: here or on the partner: Alexa Fluor 594 (Zenon human IgG labeling kit)
Take B2: the fold binding (AUC) against parental Mel1 hPSC in test [2] was 4.25 fold.

B3: Recombinant human TIGIT-Immunoglobulin chimeric protein (Fc fusion)
chain: B2 chain
modifications: Alexa Fluor 594 (Zenon human IgG labeling kit)
With B3, in test [1], the “fold binding (AUC) against the CD155 WT sBC line” value was determined as 1.37 fold. Moreover, in test [3], the “fold binding (AUC) against parental Mel1 hPSC” value worked out at 6.47 fold and the “fold binding (AUC) against the CD155 WT hPSC line” value was 1.52 fold.
